Data reported in patent US20240352445A1 (ABWIZ BIO, published 2024).

target: SARS-CoV-2 spike protein trimer, wild type (SARS-CoV-2, UniProt P0DTC2 16-1213); assay: ELISA, purified IgG

Row | Binder | binding result
1 | SEQ ID NO 12 (antibody, V domains shown, also called selected clone from LxC libraries; LxC clone) VH: EVQLVESGGGLVQPGGSLRLSCTVSGFSLSTYAMSWVRQAPGKGLEWIGVIASNADTYYASWAKGRFTISRDNSKNTLYLQMNSLRAEDTAVYYCARHPGSAGYGYAVYYAMDPWGQGTLVTVSS VL: DIQMTQSPSSLSASVGDRVTITCQASQPIHYAINWYQQKPGKAPKLLIYGTSHRKMGVPSRFSGSGSGTDYTLTISSLQPEDFATYYCQQGYIVALKFGGGTKVEIK | binds
2 | SEQ ID NO 15 (antibody, V domains shown, As m4) VH: EVQLVESGGGLVQPGGSLRLSCTVSGFSLSTYAMSWVRQAPGKGLEWIGVIASNADTYYASWAKGRFTISRDNSKNTLYLQMNSLRAEDTAVYYCARHPGSAGYGYAVYYAMDPWGQGTLVTVSS VL: DIQMTQSPSSLSASVGDRVTITCQASQKIHYAINWYQQKPGKAPKLLIYGTSYLGGGVPSRFSGSGSGTDFTLTISSLQPEDFATYYCQQGYIVPNSFGGGTKVEIK | binds
3 | SEQ ID NO 16 (antibody, V domains shown, As m4) VH: EVQLVESGGGLVQPGGSLRLSCTVSGFSLSTYAMSWVRQAPGKGLEWIGVIASNADTYYASWAKGRFTISRDNSKNTLYLQMNSLRAEDTAVYYCARHPGSAGYGYAVYYAMDPWGQGTLVTVSS VL: DIQMTQSPSSLSASVGDRVTITCQASQDVKYAINWYQQKPGKAPKLLIYGTSSRGEGVPSRFSGSGSGTDYTLTISSLQPEDFATYYCQQGYVVSIFFGGGTKVEIK | binds
4 | SEQ ID NO 18 (antibody, V domains shown, As m4; also called selected clone from LxC libraries; LxC clone) VH: EVQLVESGGGLVQPGGSLRLSCTVSGFSLSTYAMSWVRQAPGKGLEWIGVIASNADTYYASWAKGRFTISRDNSKNTLYLQMNSLRAEDTAVYYCARHPGSAGYGYAVYYAMDPWGQGTLVTVSS VL: DIQMTQSPSSLSASVGDRVTITCKASEDIRYGLNWYQQKPGKAPKLLIYGGSYLRWGVPSRFSGSGSGTDYTLTISSLQPEDFATYYCQQGYRVPIRFGGGTKVEIK | binds
5 | SEQ ID NO 17 (antibody, V domains shown, As m4) VH: EVQLVESGGGLVQPGGSLRLSCTVSGFSLSTYAMSWVRQAPGKGLEWIGVIASNADTYYASWAKGRFTISRDNSKNTLYLQMNSLRAEDTAVYYCARHPGSAGYGYAVYYAMDPWGQGTLVTVSS VL: DIQMTQSPSSLSASVGDRVTITCQASQPIYYGINWYQQKPGKAPKLLIYGHTYRAWGVPSRFSGSGSGTDFTLTISSLQPEDFATYYCQQGYRVGLGFGGGTKVEIK | binds
